The target of the assay is FGFR on smooth muscle cells (SMC) isolated from bovine aorta (bovine). Description: cell-based or functional assay.

For the substance “Recombinant human wild-type FGF2 (ligand)”, the molar concentration required to achieve half maximal proliferation of SMC ([3H] thymidine incorporation, no chlorate) is 270 pM.
Take “dFGF2, tandemly-linked dimeric FGF2, as purified with N-terminal His tag and C-terminal T7 tag (ligand)”: the fold activity in promoting SMC proliferation compared to wild-type FGF2 came out at 4.5 fold; the molar concentration required to achieve half maximal proliferation of SMC ([3H] thymidine incorporation, no chlorate) stood at 60 pM; the proliferation of chlorate-treated (HLGAG-depleted) SMC, percent of full proliferation is 80%.

(Values after patent publication US20030008820A1.)
